# Test results published in patent publication US20110301073.
# Assays:
# [1] = system: TALE repeat framework V22A (SEQ 412) repeat 5: V22A (Xanthomonas sp. (engineered)); conditions: average of 3 experiments
# [2] = system: TALE repeat framework L25Q (SEQ 419) repeat 5: L25Q (Xanthomonas sp. (engineered)); conditions: average of 3 experiments
# [3] = system: TALE repeat framework I9A (SEQ 406) repeat 5: I9A (Xanthomonas sp. (engineered)); conditions: average of 3 experiments
# [4] = system: TALE repeat framework T21A (SEQ 411) repeat 5: T21A (Xanthomonas sp. (engineered)); conditions: average of 3 experiments
# [5] = system: TALE repeat framework I9V (SEQ 407) repeat 5: I9V (Xanthomonas sp. (engineered)); conditions: average of 3 experiments
# [6] = system: TALE repeat framework T2S/P3T/D4A/T21A/Q23R/R24A (SEQ 425) repeat 5: T2S,P3T,D4A,T21A,Q23R,R24A (Xanthomonas sp. (engineered)); conditions: average of 3 experiments
# [7] = system: TALE repeat framework S11A (SEQ 409) repeat 5: S11A (Xanthomonas sp. (engineered)); conditions: average of 3 experiments
# [8] = system: TALE repeat framework T2S/P3T/D4A (SEQ 424) repeat 5: T2S,P3T,D4A (Xanthomonas sp. (engineered)); conditions: average of 3 experiments
# [9] = system: TALE repeat framework L26A (SEQ 420) repeat 5: L26A (Xanthomonas sp. (engineered)); conditions: average of 3 experiments
# [10] = system: TALE repeat framework V6A (SEQ 76) repeat 5: V6A (Xanthomonas sp. (engineered)); conditions: average of 3 experiments
# [11] = system: TALE repeat framework Q5A (SEQ 75) repeat 5: Q5A (Xanthomonas sp. (engineered)); conditions: average of 3 experiments
# [12] = system: TALE repeat framework R24A (SEQ 417) repeat 5: R24A (Xanthomonas sp. (engineered)); conditions: average of 3 experiments
# [13] = system: TALE repeat framework T21A/Q23R/R24A (SEQ 423) repeat 5: T21A,Q23R,R24A (Xanthomonas sp. (engineered)); conditions: average of 3 experiments
# [14] = system: TALE repeat framework V7A (SEQ 403) repeat 5: V7A (Xanthomonas sp. (engineered)); conditions: average of 3 experiments
# [15] = system: TALE repeat framework E20A (SEQ 410) repeat 5: E20A (Xanthomonas sp. (engineered)); conditions: average of 3 experiments
# [16] = system: TALE repeat framework P27A (SEQ 421) repeat 5: P27A (Xanthomonas sp. (engineered)); conditions: average of 3 experiments
# [17] = system: TALE repeat framework A8T (SEQ 405) repeat 5: A8T (Xanthomonas sp. (engineered)); conditions: average of 3 experiments
# [18] = system: TALE repeat framework A10L (SEQ 408) repeat 5: A10L (Xanthomonas sp. (engineered)); conditions: average of 3 experiments
# [19] = system: TALE repeat framework Q23K (SEQ 415) repeat 5: Q23K (Xanthomonas sp. (engineered)); conditions: average of 3 experiments
# [20] = system: TALE repeat framework Q23A (SEQ 413) repeat 5: Q23A (Xanthomonas sp. (engineered)); conditions: average of 3 experiments
# [21] = system: TALE repeat framework Q23R (SEQ 414) repeat 5: Q23R (Xanthomonas sp. (engineered)); conditions: average of 3 experiments
# [22] = system: TALE repeat framework L25A (SEQ 418) repeat 5: L25A (Xanthomonas sp. (engineered)); conditions: average of 3 experiments
# [23] = system: TALE repeat framework P27L (SEQ 422) repeat 5: P27L (Xanthomonas sp. (engineered)); conditions: average of 3 experiments
# [24] = system: TALE repeat framework A8L (SEQ 404) repeat 5: A8L (Xanthomonas sp. (engineered)); conditions: average of 3 experiments
# [25] = system: TALE repeat framework Q23W (SEQ 416) repeat 5: Q23W (Xanthomonas sp. (engineered)); conditions: average of 3 experiments
# [26] = system: TALE test backbone, repeat 5 RVD HD, standard framework (SEQ 333) (Xanthomonas sp. (engineered)); conditions: reference
# [27] = system: TALE test backbone, repeat 5 RVD RA (synthetic (Xanthomonas TALE)); conditions: ELISA
# [28] = system: TALE test backbone, repeat 5 RVD ND (Xanthomonas sp. (engineered)); conditions: RVD ND
# [29] = system: TALE test backbone, repeat 5 RVD NN (Xanthomonas sp. (engineered)); conditions: RVD NN
# [30] = system: TALE test backbone, repeat 5 RVD RG (synthetic (Xanthomonas TALE)); conditions: ELISA
# [31] = system: TALE test backbone, repeat 5 RVD HN (synthetic (Xanthomonas TALE)); conditions: ELISA
# [32] = system: TALE test backbone, repeat 5 RVD QG (synthetic (Xanthomonas TALE)); conditions: ELISA
# [33] = system: TALE test backbone, repeat 5 RVD DK (synthetic (Xanthomonas TALE)); conditions: ELISA
# [34] = system: TALE test backbone, repeat 5 RVD NG (Xanthomonas sp. (engineered)); conditions: RVD NG
# [35] = system: TALE test backbone, repeat 5 RVD HA (synthetic (Xanthomonas TALE)); conditions: ELISA
# [36] = system: TALE test backbone, repeat 5 RVD NA (synthetic (Xanthomonas TALE)); conditions: ELISA
# [37] = system: TALE test backbone, repeat 5 RVD KS (synthetic (Xanthomonas TALE)); conditions: ELISA
# [38] = system: TALE test backbone, repeat 5 RVD HG (synthetic (Xanthomonas TALE)); conditions: ELISA
# [39] = system: TALE test backbone, repeat 5 RVD SG (synthetic (Xanthomonas TALE)); conditions: ELISA
# [40] = system: TALE test backbone, repeat 5 RVD TA (synthetic (Xanthomonas TALE)); conditions: ELISA
# [41] = system: TALE test backbone, repeat 5 RVD IP (synthetic (Xanthomonas TALE)); conditions: ELISA
# [42] = system: TALE test backbone, repeat 5 RVD RI (synthetic (Xanthomonas TALE)); conditions: ELISA
# [43] = system: TALE test backbone, repeat 5 RVD KI (synthetic (Xanthomonas TALE)); conditions: ELISA
# [44] = system: TALE test backbone, repeat 5 RVD KD (Xanthomonas sp. (engineered)); conditions: RVD KD
# [45] = system: TALE test backbone, repeat 5 RVD AA (synthetic (Xanthomonas TALE)); conditions: ELISA
# [46] = system: TALE test backbone, repeat 5 RVD SN (synthetic (Xanthomonas TALE)); conditions: ELISA
# [47] = system: TALE test backbone, repeat 5 RVD NS (synthetic (Xanthomonas TALE)); conditions: ELISA
sequence,measurement,setting,value
TTGACCATCCT (double strand) [CCA target],binding signal (normalized ELISA),[1],0.7
same,binding signal (normalized ELISA),[2],0.9
same,binding signal (normalized ELISA),[3],0.62
same,binding signal (normalized ELISA),[4],1.05
same,binding signal (normalized ELISA),[5],0.76
same,binding signal (normalized ELISA),[6],0
same,binding signal (normalized ELISA),[7],0.9
same,binding signal (normalized ELISA),[8],0
same,binding signal (normalized ELISA),[9],1
same,binding signal (normalized ELISA),[10],0.89
same,binding signal (normalized ELISA),[11],1.03
same,binding signal (normalized ELISA),[12],0.92
same,binding signal (normalized ELISA),[13],1.42
same,binding signal (normalized ELISA),[14],0.26
same,binding signal (normalized ELISA),[15],0.82
same,binding signal (normalized ELISA),[16],1.21
same,binding signal (normalized ELISA),[17],0.82
same,binding signal (normalized ELISA),[18],0.25
same,binding signal (normalized ELISA),[19],0.92
same,binding signal (normalized ELISA),[20],0.91
same,binding signal (normalized ELISA),[21],0.97
same,binding signal (normalized ELISA),[22],1.09
same,binding signal (normalized ELISA),[23],1.29
same,binding signal (normalized ELISA),[24],0.73
same,binding signal (normalized ELISA),[25],0.88
same,binding signal (normalized ELISA),[26],1
same,binding signal (normalized ELISA),[27],0.89
same,binding signal (normalized ELISA),[28],0.73
same,binding signal (normalized ELISA),[29],0
same,binding signal (normalized ELISA),[30],0.26
same,binding signal (normalized ELISA),[31],0
same,binding signal (normalized ELISA),[32],0.11
same,binding signal (normalized ELISA),[33],0
same,binding signal (normalized ELISA),[34],0.14
same,binding signal (normalized ELISA),[35],0.53
same,binding signal (normalized ELISA),[36],0.67
same,binding signal (normalized ELISA),[37],0.78
same,binding signal (normalized ELISA),[38],0.11
same,binding signal (normalized ELISA),[39],0.23
same,binding signal (normalized ELISA),[40],0.2
same,binding signal (normalized ELISA),[41],0.13
same,binding signal (normalized ELISA),[42],0.05
same,binding signal (normalized ELISA),[43],0.11
same,binding signal (normalized ELISA),[44],0.61
same,binding signal (normalized ELISA),[45],0.35
same,binding signal (normalized ELISA),[46],0.01
same,binding signal (normalized ELISA),[47],0.26
